# Source: patent US20150224205A1
# “And” between values parts separate entries of the source, which are not always exact repeats. Equal entries are not always repeated.
# Biological target: T1, C1-esterase
# T1 sequence (P09871 16-688, species assumed, looked up): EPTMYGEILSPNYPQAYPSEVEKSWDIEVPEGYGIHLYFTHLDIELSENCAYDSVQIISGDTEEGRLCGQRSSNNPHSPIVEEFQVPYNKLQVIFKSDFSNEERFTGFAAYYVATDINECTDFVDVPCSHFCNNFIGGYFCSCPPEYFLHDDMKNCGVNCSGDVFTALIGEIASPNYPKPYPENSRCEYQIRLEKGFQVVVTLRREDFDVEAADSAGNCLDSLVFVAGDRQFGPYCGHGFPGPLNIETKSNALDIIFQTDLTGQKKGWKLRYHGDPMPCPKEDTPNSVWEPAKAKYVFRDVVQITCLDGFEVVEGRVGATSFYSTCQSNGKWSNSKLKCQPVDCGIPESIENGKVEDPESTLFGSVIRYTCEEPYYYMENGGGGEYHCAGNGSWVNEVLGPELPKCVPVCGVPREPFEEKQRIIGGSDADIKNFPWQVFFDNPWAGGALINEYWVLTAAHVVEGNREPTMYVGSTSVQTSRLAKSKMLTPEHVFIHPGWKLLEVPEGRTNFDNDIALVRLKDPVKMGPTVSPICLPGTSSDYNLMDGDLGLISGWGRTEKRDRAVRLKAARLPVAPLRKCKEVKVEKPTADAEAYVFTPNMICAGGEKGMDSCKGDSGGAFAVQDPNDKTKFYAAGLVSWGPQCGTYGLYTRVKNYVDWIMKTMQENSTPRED
# Experiment: cell-based or functional assay
# Sequence of 5k mPEG-BCN-C1 INH (P05155 23-500 limits assumed): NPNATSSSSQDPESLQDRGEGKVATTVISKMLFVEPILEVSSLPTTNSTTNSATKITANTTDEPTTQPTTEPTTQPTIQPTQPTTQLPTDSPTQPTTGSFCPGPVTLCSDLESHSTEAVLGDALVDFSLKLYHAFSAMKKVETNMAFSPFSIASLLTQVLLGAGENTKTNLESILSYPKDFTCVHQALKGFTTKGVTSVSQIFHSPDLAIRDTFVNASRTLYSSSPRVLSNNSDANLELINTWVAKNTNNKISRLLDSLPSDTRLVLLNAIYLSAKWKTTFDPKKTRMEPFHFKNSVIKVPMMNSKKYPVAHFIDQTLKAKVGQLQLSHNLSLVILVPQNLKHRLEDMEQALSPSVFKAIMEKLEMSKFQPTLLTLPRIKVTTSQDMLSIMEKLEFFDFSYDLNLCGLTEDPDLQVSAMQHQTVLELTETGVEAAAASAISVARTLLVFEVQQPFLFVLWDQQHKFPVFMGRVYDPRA
# Sequence of ALD-PEG(40 k)-C1 INH, mono PEGylated (PEG#/C1 INH = 1) (P05155 23-500 limits assumed): as above
# Sequence of ALD-PEG2(40 k)-C1 INH, mono PEGylated (PEG#/C1 INH = 1) (P05155 23-500 limits assumed): as above
# Sequence of ALD-PEG2(40 k)-C1 INH, di PEGylated (PEG#/C1 INH = 2) (P05155 23-500 limits assumed): as above
# Sequence of ALD-PEG(40 k)-C1 INH, di PEGylated (PEG#/C1 INH = 2) (P05155 23-500 limits assumed): as above
Substance,% C1 INH Activity,Specific Activity (U/mg),C1 in activity
"ALD-PEG(40 k)-C1 INH, di PEGylated (PEG#/C1 INH = 2) (from UniProt P05155 23-500)",75%,6.8 U/mg,
5k mPEG-BCN-C1 INH (from UniProt P05155 23-500),100%,7.3 U/mg,3.7 U/mg
"ALD-PEG2(40 k)-C1 INH, di PEGylated (PEG#/C1 INH = 2) (from UniProt P05155 23-500)",43%,3.9 U/mg,
"ALD-PEG(40 k)-C1 INH, mono PEGylated (PEG#/C1 INH = 1) (from UniProt P05155 23-500)",67%,6.1 U/mg and 6.9 U/mg,
"ALD-PEG2(40 k)-C1 INH, mono PEGylated (PEG#/C1 INH = 1) (from UniProt P05155 23-500)",81%,7.4 U/mg,
